These results are taken from US20200206342A1.

As a reminder, the EC50 (read off the curve) is the concentration that produces a half-maximal response.

Experiment [1] deals with DU422 gp140 (surface-displayed ectodomain) (HIV-1 strain DU422). In words: apparent dissociation constant, flow cytometry on Expi293F cells.
Experiment [2] addresses Q842.d12 Env P124D + F223Y + R557Q + I595M (Q842-QES.i04) (HIV-1 strain Q842.d12). In words: flow cytometry, Expi293F cells. Background: A flow cytometer gives signals particle by particle.
For experiment [3], the target named is purified soluble 8his-tagged BG505-QES.i03.c01 SOSIP (HIV-1 strain BG505). As to the kind of experiment: ELISA, his-tagged SOSIP on copper-coated plate, peroxidase anti-human IgG-Fc, OD 630 nm. (In an ELISA, binding on a coated surface is turned into a signal by an enzyme label.)
Experiment [4] deals with purified soluble 8his-tagged BG505 SOSIP.664 (T332N), wildtype (HIV-1 strain BG505). Described as above.
Experiment [5] addresses Q842.d12 Env QES.i04 + I181L (QES.i04.I181L) (HIV-1 strain Q842.d12). In words: flow cytometry titration on cells.
For experiment [6], the target named is Q769.d22 Env QES.i03 + V255M (QES.i03.V255M) (HIV-1 strain Q769.d22). In words: flow cytometry titration on cells.
In experiment [7] the target is BaL Env QES.i01 + I181L + V255M (QES.i01.c01) (HIV-1 strain BaL). In words: flow cytometry titration on cells.
Experiment [8] deals with 25711 Env I181L + V254T (QES.c02) (HIV-1 strain 25711). In words: flow cytometry titration on cells.
Experiment [9] concerns the target DU422 Env V181L + V254T + V255M (QES.c03) (HIV-1 strain DU422). As to the kind of experiment: flow cytometry titration on cells.
Experiment [10] concerns the target BaL Env T49D + P124D + L663N (BaL-QES.i02) (HIV-1 strain BaL). In words: flow cytometry titration on Expi293F cells.
Experiment [11] addresses Q842.d12 Env P124D + F223Y + R557Q + I595M (Q842-QES.i04) (HIV-1 strain Q842.d12). In words: flow cytometry titration on Expi293F cells.
Experiment [12] deals with Q769.d22 Env A200E + F223Y + I595M (Q769-QES.i03) (HIV-1 strain Q769.d22). In words: flow cytometry titration on Expi293F cells.
Experiment [13] has as its target BaL Env T49D + P124D + I595M (BaL-QES.i01) (HIV-1 strain BaL). In words: flow cytometry titration on Expi293F cells.
Experiment [14] addresses Q842.d12 Env gp160 wildtype (HIV-1 strain Q842.d12). As to the kind of experiment: apparent KD, flow cytometry titration on Expi293F cells.
In experiment [15] the target is Q769.d22 Env gp160 wildtype (HIV-1 strain Q769.d22). Described as above.
In experiment [16] the target is BaL Env T49D + P124D + L663N (BaL-QES.i02) (HIV-1 strain BaL). The description is as above.
Experiment [17] deals with BaL Env gp160 wildtype (HIV-1 strain BaL). The description is as above.
Experiment [18] concerns the target Q842.d12 Env P124D + F223Y + R557Q + I595M (Q842-QES.i04) (HIV-1 strain Q842.d12). The experiment is described as above.
Experiment [19] concerns the target Q769.d22 Env A200E + F223Y + I595M (Q769-QES.i03) (HIV-1 strain Q769.d22). Described as above.
Experiment [20] addresses BaL Env T49D + P124D + I595M (BaL-QES.i01) (HIV-1 strain BaL). The description is as above.
A further experiment deals with D133W. In words: flow cytometry, 2 nM PG16, transfected Expi293F cells, percent of cells in the positive gate (Negative: 0.5 %, 0.5 %).
Another experiment has as its target K617Q. The description is as above.
The target in the next experiment is W338A. The experiment is described as above.
Another experiment concerns the target F93G. Described as above.
In another experiment the target is F159V. The experiment is described as above.
The target of the next experiment is I686R. The experiment is described as above.
For the next experiment, the target named is C331I. Described as above.
The next experiment has as its target I491S. Described as above.
For another experiment, the target named is E634A. The experiment is described as above.
In the next experiment the target is S199C. Described as above.
The target of the next experiment is F223L. The description is as above.
The target in experiment [21] is BaL Env gp160 wildtype (HIV-1 strain BaL). Described as above.
For the next experiment, the target named is Q540V. The description is as above.
For the next experiment, the target named is T248E. The description is as above.
The target of the next experiment is W614A. Described as above.
A further experiment addresses I251S. The experiment is described as above.
The next experiment has as its target V208G. The experiment is described as above.
The target in a further experiment is T319K. Described as above.
Another experiment has as its target I201M. Described as above.
The next experiment has as its target Y191I. Described as above.
Another experiment concerns the target V36R. The experiment is described as above.
Experiment [22] deals with purified soluble 8his-tagged BG505-QES.i03.c01 SOSIP (HIV-1 strain BG505). In words: ELISA, purified 8his SOSIP on nickel-coated plate.
The target in experiment [23] is purified soluble 8his-tagged BG505 SOSIP.664 (T332N), wildtype (HIV-1 strain BG505). In words: ELISA, his-tagged SOSIP on nickel-coated plate, peroxidase anti-human IgG-Fc, OD 630 nm.
Experiment [24] addresses Q842.d12 Env gp160 wildtype (HIV-1 strain Q842.d12). As to the kind of experiment: flow cytometry titration, transfected cells expressing the Env.

On to “soluble CD4 sCD4-183 (domains D1-D2) (from UniProt P01730 26-208) (receptor)”, for which, in [1], the Kd amounted to 18 nM. Moreover, the fold increase in soluble CD4 binding against wildtype in experiment [2] came out at 3 fold.
As to VRC01 (antibody), the EC50 (read off the curve) in experiment [3] and in experiment [4] was 1 nM throughout.
Consider PG16 (antibody), for which the fold more PG16 bound at saturation against wildtype in [5], in experiment [6], in experiment [7], in experiment [8] and in experiment [9] was < 5 fold throughout. Further, the Kd is 5 nM in experiment [1]; 3.4 nM in [14]; 5 nM in experiment [15]; 1.4 nM in experiment [16]; 4 nM in experiment [17]; 5 nM in experiment [18]. Besides, the results for the Kd in experiment [19] and in experiment [20] were 3.7 nM and 1.2 nM, respectively. For the same substance, the fold increase in PG16 binding at saturation against wildtype in [10] and in [13] was 1.6 fold in each case. The fold increase in PG16 binding signal at saturation against wildtype in experiment [11] was 2.4 fold. For the same substance, the fold higher binding at saturation against wildtype in experiment [12] is 2.7 fold. The EC50 (read off the curve) in [3] came to 0.2 nM; in experiment [4] it was 0.4 nM. Moreover, the percent positive cells (first of two replicates) is 16% with D133W; 15% with K617Q; 1.3% with W338A; 1.4% in the experiment with F93G; 1.4% with F159V; 5% with I686R. For the same substance, the percent positive cells (first of two replicates) with C331I was determined as 1.4%; with I491S, 1.3%; with E634A, 11.1%; in the experiment with S199C, 1.2%; with F223L, 11.2%; in [21] it was 38%. Moreover, the percent positive cells (first of two replicates) turned out to be 2.4% with Q540V; 1.1% in the experiment with T248E; 1.2% with W614A; 6.1% with I251S; 21.6% with V208G; 20.3% with T319K. For the same substance, the percent positive cells (first of two replicates) was found to be 29.5% with I201M, 1.9% with Y191I and 2.1% in the experiment with V36R. Besides, the percent positive cells (second of two replicates) stood at 16% in the experiment with D133W; 14.8% with K617Q; 2% with W338A; 2.1% with F93G; 1.7% with F159V; 5.9% with I686R. Besides, the percent positive cells (second of two replicates) with C331I was 1.9%; with I491S, 2.1%; with E634A, 9.3%; with S199C, 1.6%; with F223L, 10.7%; in experiment [21], 36.2%. Further, the percent positive cells (second of two replicates) with Q540V was 3%; with T248E, 2%; in the experiment with W614A, 2.1%; with I251S, 4.2%; with V208G, 22.5%; with T319K, 18.8%. Moreover, the percent positive cells (second of two replicates) in the experiment with I201M came out at 29.8%; with Y191I, 1.9%; with V36R, 2.6%.
For the substance CD4-IgG2 (Fc fusion), the fold reduction of apparent affinity against wildtype in experiment [22] is 5.5 fold. In addition, the EC50 (read off the curve) in experiment [23] was 0.08 µg/mL.
PGT145 (antibody): in experiment [24], the EC50 (read off the curve) is 0.5 nM.
